Reference: article PMC11480844 (2024)

B1: H2-Kb / Ed45 (parent complex)
chain 1: GEQVEQRPPHLSVREGDSAVIICTYTDPNSYYFFWYKQEPGAGLQLLMKVFSSTEINEGQGFTVLLNKKDKQLSLNLTAAHPGDSAVYFCAVSGTNAYKVIFGKGTHLHVLP
chain 2: EAAVTQSPRSKVAVTGGKVTLSCHQTNNHDYMYWYRQDTGHGLRLIHYSYVADSTEKGDIPDGYKASRPSQENFSLILELASLSQTAVYFCASARGFQDTQYFGPGTRLLVL
chain 3: not shown
chain 4: IQKTPQIQVYSRHPPENGKPNILNCYVTQFHPPHIEIQMLKNGKKIPKVEMSDMSFSKDWSFYILAHTEFTPTETDTYACRVKHDSMAEPKTVYWDRDM
chain 5: SIINFEKL
B2: H2-Kb / Ed10 (parent complex)
chain 1: GEQVEQRPPHLSVREGDSAFIICTYTDSATAYFYWYKQEPGAGLQLLMSVFSNVDRKEEQGLTVLLNKKDKRLSLNLTAAHPGDSAVYFCAVRGTGYQNFYFGKGTSLTVIP
chain 2: AQTIHQWPVAEIKAVGSPLSLGCTIKGKSSPNLYWYWQATGGTLQQLFYSITVGQVESVVQLNLSASRPKDDQFILSTEKLLLSHSGFYLCAWSPGYEQYFGPGTRLTVL
chain 3: not shown
chain 4: B1 chain 4
chain 5: SIINFEKL

Variants of: B1
Test: % of reporter cells activated (NFAT-GFP), raw
Note: test concentration or dose not given here.

Compared with chain 5 N4R, chain 5 N4C is lower in ratio to parent: 0.533 for the first, 0.183 for the second.

First: chain 5 N4G
Second: chain 5 N4S
The ratio to parent of the first is higher: 1.18 for the first, 0.0823 for the second.

Compared with chain 5 N4K, chain 5 N4H is lower in ratio to parent: 1.07 for the first, 0.668 for the second.

Compared with chain 5 N4P, chain 5 N4M is lower in ratio to parent: 0.0883 for the first, 0.0786 for the second.

First: chain 5 N4W
Second: chain 5 N4T
The ratio to parent of the first is higher: 0.125 for the first, 0.0812 for the second.

Going from chain 5 N4L to chain 5 N4A, the ratio to parent falls from 1.34 to 0.0797.

Compared with chain 5 N4Q, chain 5 N4D is higher in ratio to parent: 0.0624 for the first, 0.241 for the second.

First: chain 5 N4Y
Second: chain 5 N4V
The ratio to parent of the first is lower: 0.0695 for the first, 0.0865 for the second.

Compared with chain 5 N4F, chain 5 N4E is higher in ratio to parent: 0.261 for the first, 1.11 for the second.

First: chain 5 F5V
Second: chain 5 F5R
The ratio to parent of the first is lower: 0.617 for the first, 1.73 for the second.

Going from chain 5 F5I to chain 5 F5A, the ratio to parent rises from 0.389 to 0.77.

Compared with chain 5 F5M, chain 5 F5C is higher in ratio to parent: 0.797 for the first, 1.61 for the second.

Going from chain 5 F5E to chain 5 F5Q, the ratio to parent falls from 1.34 to 0.947.

Going from chain 5 F5Y to chain 5 F5N, the ratio to parent falls from 1.63 to 1.23.

Compared with chain 5 F5S, chain 5 F5H is higher in ratio to parent: 1.09 for the first, 1.28 for the second.

Going from chain 5 F5K to chain 5 F5T, the ratio to parent falls from 1.19 to 0.936.

Going from chain 5 F5G to chain 5 F5W, the ratio to parent rises from 0.495 to 2.33.

First: chain 5 F5D
Second: chain 5 F5P
The ratio to parent of the first is higher: 1.54 for the first, 1 for the second.

Going from chain 5 K7Y to chain 5 K7W, the ratio to parent rises from 1.03 to 1.18.

First: chain 5 K7A
Second: chain 5 K7P
The ratio to parent of the first is higher: 0.925 for the first, 0.891 for the second.

Going from chain 5 K7G to chain 5 K7M, the ratio to parent rises from 0.872 to 1.21.

Compared with chain 5 K7N, chain 5 K7R is higher in ratio to parent: 0.639 for the first, 2.06 for the second.

Compared with chain 5 K7I, chain 5 K7T is lower in ratio to parent: 0.349 for the first, 0.253 for the second.

Compared with chain 5 K7D, chain 5 K7E is lower in ratio to parent: 0.247 for the first, 0.0609 for the second.

Going from chain 5 K7V to chain 5 K7H, the ratio to parent rises from 0.895 to 1.25.

Compared with chain 5 K7L, chain 5 K7F is lower in ratio to parent: 0.569 for the first, 0.418 for the second.

First: chain 5 K7Q
Second: chain 5 K7C
The ratio to parent of the first is higher: 0.193 for the first, 0.0944 for the second.

Going from chain 5 I3T to chain 5 I3E, the ratio to parent rises from 1.86 to 2.17.

First: chain 5 I3K
Second: chain 5 I3M
The ratio to parent of the first is lower: 2.08 for the first, 2.2 for the second.

Going from chain 5 I3L to chain 5 I3F, the ratio to parent falls from 1.61 to 0.726.

Going from chain 5 I3P to chain 5 I3R, the ratio to parent rises from 2.34 to 2.47.

First: chain 5 I3D
Second: chain 5 I3S
The ratio to parent of the first is higher: 2.15 for the first, 1.96 for the second.

First: chain 5 I3N
Second: chain 5 I3H
The ratio to parent of the first is lower: 1.85 for the first, 2.02 for the second.

Going from chain 5 I3Y to chain 5 I3Q, the ratio to parent rises from 0.537 to 2.26.

Compared with chain 5 I3W, chain 5 I3C is higher in ratio to parent: 1.57 for the first, 1.81 for the second.

Compared with chain 5 I3G, chain 5 I3V is higher in ratio to parent: 1.87 for the first, 2.18 for the second.

Compared with chain 5 I3A, chain 5 E6G is lower in ratio to parent: 2.14 for the first, 0.715 for the second.

Going from chain 5 E6P to chain 5 E6F, the ratio to parent falls from 1.12 to 0.188.

Compared with chain 5 E6R, chain 5 E6W is higher in ratio to parent: 0.0752 for the first, 0.317 for the second.

First: chain 5 E6D
Second: chain 5 E6S
The ratio to parent of the first is lower: 0.542 for the first, 0.801 for the second.

Going from chain 5 E6L to chain 5 E6N, the ratio to parent rises from 0.26 to 1.11.

Compared with chain 5 E6C, chain 5 E6I is lower in ratio to parent: 0.258 for the first, 0.155 for the second.

Compared with chain 5 E6V, chain 5 E6A is higher in ratio to parent: 0.148 for the first, 1.48 for the second.

Going from chain 5 E6K to chain 5 E6Q, the ratio to parent falls from 0.861 to 0.738.

Compared with chain 5 E6M, chain 5 E6H is higher in ratio to parent: 0.312 for the first, 0.541 for the second.

Going from chain 5 E6Y to chain 5 L8K, the ratio to parent rises from 0.198 to 1.87.

First: chain 5 L8V
Second: chain 5 L8S
The ratio to parent of the first is lower: 1.43 for the first, 1.53 for the second.

Going from chain 5 L8H to chain 5 L8F, the ratio to parent rises from 1.66 to 1.79.

First: chain 5 L8M
Second: chain 5 L8C
The ratio to parent of the first is lower: 1.65 for the first, 1.72 for the second.

Going from chain 5 L8T to chain 5 L8N, the ratio to parent falls from 1.72 to 1.6.

Compared with chain 5 L8G, chain 5 L8R is higher in ratio to parent: 1.57 for the first, 1.77 for the second.

Compared with chain 5 L8Y, chain 5 L8D is lower in ratio to parent: 1.85 for the first, 1.52 for the second.

Going from chain 5 L8P to chain 5 L8W, the ratio to parent rises from 1.68 to 1.7.

First: chain 5 L8A
Second: chain 5 L8E
The ratio to parent of the first is higher: 1.77 for the first, 1.52 for the second.

Going from chain 5 L8I to chain 5 S1Y, the ratio to parent falls from 1.62 to 0.775.

Compared with chain 5 S1H, chain 5 S1M is lower in ratio to parent: 0.638 for the first, 0.0805 for the second.

Compared with chain 5 S1F, chain 5 S1I is lower in ratio to parent: 0.0609 for the first, 0.0549 for the second.

First: chain 5 S1A
Second: chain 5 S1Q
The ratio to parent of the first is lower: 0.0786 for the first, 0.331 for the second.

Compared with chain 5 S1W, chain 5 S1G is higher in ratio to parent: 0.347 for the first, 0.388 for the second.

Going from chain 5 S1C to chain 5 S1N, the ratio to parent falls from 0.234 to 0.0722.

First: chain 5 S1E
Second: chain 5 S1T
The ratio to parent of the first is lower: 0.177 for the first, 0.483 for the second.

Going from chain 5 S1D to chain 5 S1K, the ratio to parent falls from 0.424 to 0.191.

Compared with chain 5 S1P, chain 5 S1R is higher in ratio to parent: 0.0861 for the first, 0.648 for the second.

First: chain 5 S1V
Second: chain 5 I2H
The ratio to parent of the first is lower: 0.0654 for the first, 1.61 for the second.

First: chain 5 I2A
Second: chain 5 I2C
The ratio to parent of the first is lower: 1.32 for the first, 1.39 for the second.

Compared with chain 5 I2F, chain 5 I2E is higher in ratio to parent: 1.21 for the first, 1.97 for the second.

Compared with chain 5 I2W, chain 5 I2V is lower in ratio to parent: 1.68 for the first, 1.48 for the second.

Going from chain 5 I2R to chain 5 I2S, the ratio to parent falls from 1.63 to 1.32.

Going from chain 5 I2N to chain 5 I2K, the ratio to parent rises from 1.33 to 1.83.

Going from chain 5 I2D to chain 5 I2T, the ratio to parent falls from 1.34 to 1.23.

Compared with chain 5 I2L, chain 5 I2M is lower in ratio to parent: 2.14 for the first, 2.11 for the second.

First: chain 5 I2Q
Second: chain 5 I2G
The ratio to parent of the first is higher: 1.91 for the first, 1.62 for the second.

Going from chain 5 I2Y to chain 5 I2P, the ratio to parent falls from 1.75 to 1.32.

Variants of: B2
Test: % of reporter cells activated (NFAT-GFP), raw

Going from chain 5 E6G to chain 5 E6S, the ratio to parent falls from 0.824 to 0.0168.

Going from chain 5 S1W to chain 5 S1H, the ratio to parent rises from 0.717 to 1.01.
